The values that follow come from EP4671282A1 (Jiangsu Hengrui Pharmaceuticals Co., Ltd., dated 2025).

In test [1] the target is T1, Human IL-36R protein (His + Avi Tag, biotinylation), Kactus IL1-HM4L2B (human, UniProt Q9HB29 20-335, biotinylated).
T1 construct: Screening antigen of the phage panning; also called biotinylated human IL-36R; human IL-36R antigen (screening antigen)
T1 sequence: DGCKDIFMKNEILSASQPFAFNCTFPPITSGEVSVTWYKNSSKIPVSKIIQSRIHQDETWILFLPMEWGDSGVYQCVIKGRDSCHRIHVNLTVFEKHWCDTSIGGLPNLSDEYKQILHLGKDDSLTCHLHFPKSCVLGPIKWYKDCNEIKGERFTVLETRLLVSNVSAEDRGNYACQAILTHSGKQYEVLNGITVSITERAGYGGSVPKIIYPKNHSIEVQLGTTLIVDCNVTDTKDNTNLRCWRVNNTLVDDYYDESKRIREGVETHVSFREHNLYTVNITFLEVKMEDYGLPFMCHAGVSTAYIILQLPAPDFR
Nature of the test: phage panning on biotinylated human IL-36R, clone ELISA. (In general: ELISA stands for enzyme-linked immunosorbent assay.)

In test [2] the target is T2, human IL-23 protein (ACROBiosystems, ILB-H52W5) (human, UniProt Q9NPF7 20-189; P29460 23-328).
T2 sequence (looked up) 1: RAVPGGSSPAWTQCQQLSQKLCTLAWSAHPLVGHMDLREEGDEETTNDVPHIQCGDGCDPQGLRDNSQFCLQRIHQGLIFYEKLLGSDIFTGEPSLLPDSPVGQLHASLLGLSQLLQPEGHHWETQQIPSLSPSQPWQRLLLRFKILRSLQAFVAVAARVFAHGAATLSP
T2 sequence (looked up) 2: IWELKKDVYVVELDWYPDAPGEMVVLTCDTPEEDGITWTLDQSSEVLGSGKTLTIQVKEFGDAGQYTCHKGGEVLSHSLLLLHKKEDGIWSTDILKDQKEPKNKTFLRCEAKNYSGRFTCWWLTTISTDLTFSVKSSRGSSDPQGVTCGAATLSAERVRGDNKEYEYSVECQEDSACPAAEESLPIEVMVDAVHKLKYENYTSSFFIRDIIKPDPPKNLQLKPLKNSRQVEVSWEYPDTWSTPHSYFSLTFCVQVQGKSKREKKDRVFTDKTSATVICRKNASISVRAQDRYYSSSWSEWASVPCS
The experiment in a line: cell-based or functional assay.

The target in test [3] is T3, human IL-23 protein (Sino Biological, CT048-H08H) (human, UniProt Q9NPF7 20-189; P29460 23-328).
T3 construct: Detected with Anti-His-HRP in the ELISA, so it carries a His tag
T3 sequence (looked up) 1: T2 sequence (looked up) 1
T3 sequence (looked up) 2: T2 sequence (looked up) 2
The experiment in a line: ELISA, test sample coated, His-tagged IL-23 in solution.

For test [4], the target named is T2, human IL-23 protein (ACROBiosystems, …). The experiment in a line: ELISA, human IL-23 coated.
For test [5] the target is unchanged. Nature of the test: cell-based or functional assay. This is another data set of the same source.
Test [6] addresses T3, human IL-23 protein (Sino Biological, …). The experiment in a line: SPR (Biacore 8K), antibody captured on Protein A chip, IL-23 as analyte. In general terms: Surface plasmon resonance follows binding to a sensor surface in real time, without labels.
The target of test [7] is T2, human IL-23 protein (ACROBiosystems, …). The experiment in a line: cell-based or functional assay. This is another data set of the same source.
Test [8] deals with T3, human IL-23 protein (Sino Biological, …). Nature of the test: cell-based or functional assay.
Test [9] has as its target T2, human IL-23 protein (ACROBiosystems, …). The experiment in a line: SPR (Biacore 8K), antibody captured by anti-human IgG Fc, IL-23 as analyte.
In test [10] the target is T4, IL-23 (R&D Systems, 1290-IL-010) (UniProt Q9NPF7 20-189; P29460 23-328).
T4 sequence (looked up) 1: T2 sequence (looked up) 1
T4 sequence (looked up) 2: T2 sequence (looked up) 2
Nature of the test: cell-based or functional assay.

For test [11], the target named is T3, human IL-23 protein (Sino Biological, …). The experiment in a line: competition ELISA, IL-23R coated, biotinylated IL-23 preincubated with antibody.
Test [12] has as its target T5, human IL-36R full-length protein stably expressed on CHO-K1 cells (human, UniProt Q9HB29 20-575).
T5 construct: FlpIn CHO-K1 line expressing the full-length protein; also called human IL-36R on the surface of CHO-K1 cells; CHO-K1 cells overexpressing human IL-36R
T5 sequence: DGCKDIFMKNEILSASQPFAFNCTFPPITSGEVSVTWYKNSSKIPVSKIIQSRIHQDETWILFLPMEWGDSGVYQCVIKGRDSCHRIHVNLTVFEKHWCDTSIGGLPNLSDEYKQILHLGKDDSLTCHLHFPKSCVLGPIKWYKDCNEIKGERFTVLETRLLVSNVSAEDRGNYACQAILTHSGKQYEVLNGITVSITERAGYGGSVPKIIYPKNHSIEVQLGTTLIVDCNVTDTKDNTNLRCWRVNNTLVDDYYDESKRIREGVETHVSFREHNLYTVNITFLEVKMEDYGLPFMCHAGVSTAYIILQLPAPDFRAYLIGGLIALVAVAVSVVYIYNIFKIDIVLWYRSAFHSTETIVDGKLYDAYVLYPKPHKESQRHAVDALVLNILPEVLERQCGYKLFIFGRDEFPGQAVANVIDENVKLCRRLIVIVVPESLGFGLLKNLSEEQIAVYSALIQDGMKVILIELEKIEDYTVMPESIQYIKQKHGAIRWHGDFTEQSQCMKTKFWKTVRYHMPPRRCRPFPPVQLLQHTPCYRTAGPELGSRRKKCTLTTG
Nature of the test: FACS, CHO-K1 cells overexpressing human IL-36R.

Test [13] concerns the target T6, IL-36R on human skin squamous cell line A431 (human, UniProt Q9HB29 20-575).
T6 sequence (looked up): T5 sequence
Nature of the test: cell-based or functional assay.

Test [14] has as its target T7, Human IL-36R protein (His + Avi Tag), Kactus IL1-HM4L2 (human, UniProt Q9HB29 20-335).
T7 construct: Bought protein; also called human IL-36R antigen protein; Human IL-36R antigen
T7 sequence: T1 sequence
Nature of the test: SPR (Biacore 8K), antibody captured by anti-human IgG Fc, IL-36R as analyte.

Where two headings read alike, the source gives them in different places.

B1: VHH162 (camelid nanobody clone from the phage library) (VHH)
VHH: DVQLVESGGGSVQPGGSLRLSCAASGYSYRTQCLGWYRQAPGKQREAVATISGGGTSTYYSDSVKGRFTISQDNARTTVYLSLTSLKPEDTATYYCAAGLSVLGSWCHGGSSYEYTYSGQGTQVTVSS
notes: As identified by panning and clone ELISA (phage or clone format not described)
As to B1, the binding result in test [1] is given as “binds”.

B2: Hu29-19 (humanized anti-IL-23 antibody, hAb29VH5 and hAb29VL3) (antibody, human IgG1, kappa, L234A L235A, V domains shown)
VH: QVTLKESGPVLVKPTETLTLTCTVSGFSLTNYAISWVRQPPGKGLEWLGVIWTGGGTNYNSGIKSRLTISKDNSKSQVVLTMTNMDPVDTARYYCVREGDYGSYAGAMDYWGQGTTVTVSS
VL: DIVLTQSPDSLAVSLGERATINCRASESVDYYGISSMHWFQQKPGQPPKLLIYRASNLESGIPARFSGSGSRTDFTLTISSLQAEDVAVYYCQQANKDPYTFGGGTKVEIKR
On to B2, for which the “DB-STAT3-Luc2 reporter gene system IC50” value in test [2] was 5.1 nM. Further, the results for the EC50 in test [3] and in test [4] were 1.11 nM and 0.55 nM, respectively. For the same molecule, the “proliferation of BaF3-mIL-23R cells induced by IL-23, IC50” value (shortened to “proliferation … by IL-23, IC50”) in [5] was determined as 0.43 nM; in test [7], 0.36 nM. In addition, the Kd (usually the equilibrium constant for the complex coming apart) amounted to 0.0151 nM in test [6] and 0.0106 nM in [9]. For the same molecule, the figures for the koff in [6] and in [9] were 4.08e-05 s⁻¹ and 6.26e-05 s⁻¹, respectively. Moreover, the kon (as a rule, a measure of how fast the partners come together) in [6] was 2.71e+06 M⁻¹ s⁻¹; in [9], 5.93e+06 M⁻¹ s⁻¹. In [8], the “Activity in inhibiting proliferation of BaF3-IL-23R cells (IC50, nM)” value is 0.194 nM. Also, the “IC50 for inhibiting IL-17 secretion” value in test [10] is 0.0177 nM. Further, the IC50 – broadly, the point on the concentration scale where inhibition reaches its midpoint – in test [11] is 0.478 nM.

B3: IL-36R-IL-23-01 (anti-IL-36R and anti-IL-23 bispecific antibody, VHH213_Hu07 on Hu29-19, Structure A) (bispecific antibody, human IgG1, kappa, L234A L235A)
heavy: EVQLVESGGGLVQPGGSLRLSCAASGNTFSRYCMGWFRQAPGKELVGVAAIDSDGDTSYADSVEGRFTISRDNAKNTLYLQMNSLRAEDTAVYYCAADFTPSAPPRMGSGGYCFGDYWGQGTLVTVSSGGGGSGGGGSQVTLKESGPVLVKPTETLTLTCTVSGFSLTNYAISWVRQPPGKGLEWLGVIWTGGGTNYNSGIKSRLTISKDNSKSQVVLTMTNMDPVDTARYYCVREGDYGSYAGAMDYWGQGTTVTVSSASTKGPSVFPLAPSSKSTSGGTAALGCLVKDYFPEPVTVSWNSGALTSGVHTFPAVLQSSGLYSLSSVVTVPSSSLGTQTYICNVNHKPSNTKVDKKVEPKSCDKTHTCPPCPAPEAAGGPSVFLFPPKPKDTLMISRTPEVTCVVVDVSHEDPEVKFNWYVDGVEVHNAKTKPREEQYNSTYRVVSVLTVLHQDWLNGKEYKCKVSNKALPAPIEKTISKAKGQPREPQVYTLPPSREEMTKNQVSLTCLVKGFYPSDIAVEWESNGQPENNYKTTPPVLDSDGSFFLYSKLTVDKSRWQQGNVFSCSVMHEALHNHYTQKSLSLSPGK
light: DIVLTQSPDSLAVSLGERATINCRASESVDYYGISSMHWFQQKPGQPPKLLIYRASNLESGIPARFSGSGSRTDFTLTISSLQAEDVAVYYCQQANKDPYTFGGGTKVEIKRTVAAPSVFIFPPSDEQLKSGTASVVCLLNNFYPREAKVQWKVDNALQSGNSQESVTEQDSKDSTYSLSSTLTLSKADYEKHKVYACEVTHQGLSSPVTKSFNRGEC
notes: VHH fused by a (G4S)2 linker to the N-terminus of the heavy chain; IgG1 L234A/L235A
Consider B3, for which, in [2], the “DB-STAT3-Luc2 reporter gene system IC50” value was 7 nM. Also, in test [12], the EC50 (usually the concentration needed to bring the measured effect to its halfway point) came out at 1.28 nM and the “Maximum MFI” value amounted to 11600 MFI. In addition, a half-maximal response in test [4] (EC50) required 1.21 nM. In addition, in test [7], the “proliferation … by IL-23, IC50” value amounted to 0.39 nM. In test [13], the “IL-8 secretion (A431), IL-36α, IC50” value amounted to 0.54 nM; the “IL-8 secretion (A431), IL-36β, IC50” value was 0.2 nM; the “IL-8 secretion (A431), IL-36γ, IC50” value was determined as 0.06 nM. Further, in test [14], the Kd came out at 6.47 nM; the koff (in general, the first-order rate constant of dissociation) was 0.000123 s⁻¹; the kon amounted to 19100 M⁻¹ s⁻¹. In test [9], binding was characterised by a dissociation constant (Kd) of 0.023 nM, the koff worked out at 5.97e-05 s⁻¹ and the kon was 2.6e+06 M⁻¹ s⁻¹.

B4: IL-36R-IL-23-02 (anti-IL-36R and anti-IL-23 bispecific antibody, VHH162_Hu11 on Hu29-19, Structure A) (bispecific antibody, human IgG1, kappa, L234A L235A)
heavy: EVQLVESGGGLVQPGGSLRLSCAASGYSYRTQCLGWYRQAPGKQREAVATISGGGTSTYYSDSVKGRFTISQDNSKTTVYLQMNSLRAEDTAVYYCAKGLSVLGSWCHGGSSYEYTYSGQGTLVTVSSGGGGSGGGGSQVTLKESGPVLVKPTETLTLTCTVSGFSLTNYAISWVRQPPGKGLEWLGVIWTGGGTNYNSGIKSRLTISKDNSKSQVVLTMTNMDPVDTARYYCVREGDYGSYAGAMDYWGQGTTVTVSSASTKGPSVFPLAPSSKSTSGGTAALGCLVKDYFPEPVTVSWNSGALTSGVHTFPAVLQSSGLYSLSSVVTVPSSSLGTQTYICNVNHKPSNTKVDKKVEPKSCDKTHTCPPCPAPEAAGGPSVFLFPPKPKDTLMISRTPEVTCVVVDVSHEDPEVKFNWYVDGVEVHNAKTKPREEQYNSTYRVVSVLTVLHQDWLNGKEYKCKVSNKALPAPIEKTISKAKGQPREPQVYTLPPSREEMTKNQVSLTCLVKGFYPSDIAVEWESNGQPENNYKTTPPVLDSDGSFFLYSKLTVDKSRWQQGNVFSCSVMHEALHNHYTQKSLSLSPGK
light: B3 light
notes: VHH fused by a (G4S)2 linker to the N-terminus of the heavy chain; IgG1 L234A/L235A; also called IL-36R-1L-23-02
On to B4, for which the “DB-STAT3-Luc2 reporter gene system IC50” value in test [2] was 8.8 nM. In [12], the EC50 worked out at 1.13 nM and the “Maximum MFI” value was determined as 11400 MFI. Further, it took 0.49 nM to reach a half-maximal effect in [4] (EC50). In addition, the “proliferation … by IL-23, IC50” value in [5] was 0.5 nM. Besides, in test [13], the “IL-8 secretion (A431), IL-36α, IC50” value was 1.63 nM; the “IL-8 secretion (A431), IL-36β, IC50” value was determined as 0.74 nM; the “IL-8 secretion (A431), IL-36γ, IC50” value amounted to 0.21 nM. Also, in [14], the Kd came to 15.9 nM, the koff stood at 0.000146 s⁻¹ and the kon was 9210 M⁻¹ s⁻¹. In test [9], this molecule came in with a Kd of 0.0235 nM, a koff of 6.83e-05 s⁻¹ and a kon of 2.9e+06 M⁻¹ s⁻¹.
